Results as given in publication PMC9482650, “Quantitative fragmentomics allow affinity mapping of interactomes” (Nature Communications, 2022).

T1: USH1C_1, Q9Y6N9
T1 sequence (Q9Y6N9 82-179, limits assumed, looked up): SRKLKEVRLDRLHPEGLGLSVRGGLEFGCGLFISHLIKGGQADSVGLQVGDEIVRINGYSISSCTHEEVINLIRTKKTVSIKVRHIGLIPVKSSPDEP

T2: MPDZ_6, O75970
T2 sequence (O75970 1003-1099, limits assumed, looked up): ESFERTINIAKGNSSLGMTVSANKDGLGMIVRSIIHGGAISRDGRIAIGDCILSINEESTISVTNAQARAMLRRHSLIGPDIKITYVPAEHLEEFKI

T3: PDZD11, Q5EBL8
T3 sequence (Q5EBL8 42-139, limits assumed, looked up): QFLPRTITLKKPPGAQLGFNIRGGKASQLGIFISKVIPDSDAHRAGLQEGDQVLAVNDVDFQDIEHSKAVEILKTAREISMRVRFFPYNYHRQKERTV

T4: PREX2_2, Q70Z35
T4 sequence (Q70Z35 672-764, limits assumed, looked up): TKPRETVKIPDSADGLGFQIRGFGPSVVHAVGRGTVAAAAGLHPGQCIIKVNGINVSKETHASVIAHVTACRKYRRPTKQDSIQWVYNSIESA

T5: MPDZ_11, O75970
T5 sequence (O75970 1720-1817, limits assumed, looked up): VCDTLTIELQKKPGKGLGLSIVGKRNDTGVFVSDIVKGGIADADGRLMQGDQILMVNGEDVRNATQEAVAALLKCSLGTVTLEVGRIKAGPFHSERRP

T6: DVL1, O14640
T6 sequence (O14640 246-333, limits assumed, looked up): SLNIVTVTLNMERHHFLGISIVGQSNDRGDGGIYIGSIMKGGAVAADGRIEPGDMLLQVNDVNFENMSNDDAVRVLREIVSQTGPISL

T7: PDZD2_5, O15018
T7 sequence (O15018 2617-2716, limits assumed, looked up): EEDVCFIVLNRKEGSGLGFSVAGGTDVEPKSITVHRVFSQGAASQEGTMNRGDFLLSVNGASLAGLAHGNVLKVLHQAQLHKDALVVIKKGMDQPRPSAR

T8: NHERF3_2, Q5T2W1
T8 sequence (Q5T2W1 129-225, limits assumed, looked up): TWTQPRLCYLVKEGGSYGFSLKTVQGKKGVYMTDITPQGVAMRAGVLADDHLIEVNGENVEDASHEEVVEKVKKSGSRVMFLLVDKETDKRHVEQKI

T9: PDZD7_1, Q9H5P4
T9 sequence (Q9H5P4 81-178, limits assumed, looked up): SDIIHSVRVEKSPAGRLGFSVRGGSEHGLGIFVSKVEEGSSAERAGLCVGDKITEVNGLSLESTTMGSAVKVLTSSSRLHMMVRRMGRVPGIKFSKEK

T10: SHROOM4, Q9ULL8
T10 sequence (Q9ULL8 5-102, limits assumed, looked up): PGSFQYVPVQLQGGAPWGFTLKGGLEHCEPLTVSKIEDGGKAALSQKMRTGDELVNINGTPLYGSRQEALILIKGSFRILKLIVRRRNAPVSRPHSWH

T11: USH1C_2, Q9Y6N9
T11 sequence (Q9Y6N9 206-303, limits assumed, looked up): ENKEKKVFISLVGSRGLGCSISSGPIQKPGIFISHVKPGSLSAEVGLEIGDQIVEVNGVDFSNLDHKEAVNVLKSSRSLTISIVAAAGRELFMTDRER

T12: MPDZ_13, O75970
T12 sequence (O75970 1982-2070, limits assumed, looked up): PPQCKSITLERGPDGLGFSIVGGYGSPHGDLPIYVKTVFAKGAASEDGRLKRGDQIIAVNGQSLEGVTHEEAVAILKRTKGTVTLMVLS


Molecular target: T1, USH1C_1, Q9Y6N9
Assay: holdup assay
Design: key: below the threshold = too weak to quantify, mostly under pKd 3.1 to 4
Settings: plain residues with an end cap or a label only (N-terminal biotin on a linker: ttds)

Binder	pKd
CLDTSRETDL [KCNA5, P22460]	below the threshold
DEDQHTQITKV [PTEN, P60484]	below the threshold

Molecular target: T2, MPDZ_6, O75970
Assay: holdup assay
Design: key: below the threshold = too weak to quantify, mostly under pKd 3.1 to 4
Settings: plain residues with an end cap or a label only (N-terminal biotin on a linker: ttds)

Binder	pKd
CLDTSRETDL [KCNA5, P22460]	below the threshold
DEDQHTQITKV [PTEN, P60484]	below the threshold

Molecular target: T3, PDZD11, Q5EBL8
Assay: holdup assay
Design: key: below the threshold = too weak to quantify, mostly under pKd 3.1 to 4
Settings: plain residues with an end cap or a label only (N-terminal biotin on a linker: ttds)

Binder	pKd
CLDTSRETDL [KCNA5, P22460]	below the threshold
DEDQHTQITKV [PTEN, P60484]	below the threshold

Molecular target: MAGI1_6, Q96QZ7
Assay: holdup assay
Design: key: below the threshold = too weak to quantify, mostly under pKd 3.1 to 4
Settings: plain residues with an end cap or a label only (N-terminal biotin on a linker: ttds)

Sequence of MAGI1_6, Q96QZ7 (Q96QZ7 1146-1238): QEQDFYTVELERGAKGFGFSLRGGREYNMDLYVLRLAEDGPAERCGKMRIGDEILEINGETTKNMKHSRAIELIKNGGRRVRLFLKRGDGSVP

Binder	pKd
CLDTSRETDL [KCNA5, P22460]	4.55
DEDQHTQITKV [PTEN, P60484]	below the threshold

Molecular target: IL16_2, Q14005
Assay: holdup assay
Design: key: below the threshold = too weak to quantify, mostly under pKd 3.1 to 4
Settings: plain residues with an end cap or a label only (N-terminal biotin on a linker: ttds)

Sequence of IL16_2, Q14005 (Q14005 350-450): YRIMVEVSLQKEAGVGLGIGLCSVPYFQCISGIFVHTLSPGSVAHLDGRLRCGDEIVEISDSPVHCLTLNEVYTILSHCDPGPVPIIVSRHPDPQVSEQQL

Binder	pKd
CLDTSRETDL [KCNA5, P22460]	below the threshold
DEDQHTQITKV [PTEN, P60484]	below the threshold

Molecular target: T4, PREX2_2, Q70Z35
Assay: holdup assay
Design: key: below the threshold = too weak to quantify, mostly under pKd 3.1 to 4
Settings: plain residues with an end cap or a label only (N-terminal biotin on a linker: ttds)

Binder	pKd
CLDTSRETDL [KCNA5, P22460]	below the threshold
DEDQHTQITKV [PTEN, P60484]	below the threshold

Molecular target: Inadl_7, Q8NI35
Assay: holdup assay
Design: key: below the threshold = too weak to quantify, mostly under pKd 3.1 to 4
Settings: plain residues with an end cap or a label only (N-terminal biotin on a linker: ttds)

Sequence of Inadl_7, Q8NI35 (Q8NI35 1219-1332): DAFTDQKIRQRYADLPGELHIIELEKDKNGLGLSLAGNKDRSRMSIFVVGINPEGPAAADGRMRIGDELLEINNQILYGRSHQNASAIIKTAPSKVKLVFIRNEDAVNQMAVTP

Binder	pKd
CLDTSRETDL [KCNA5, P22460]	below the threshold
DEDQHTQITKV [PTEN, P60484]	3.65

Molecular target: RIMS1, Q86UR5
Assay: holdup assay
Design: key: below the threshold = too weak to quantify, mostly under pKd 3.1 to 4
Settings: plain residues with an end cap or a label only (N-terminal biotin on a linker: ttds)

Sequence of RIMS1, Q86UR5 (Q86UR5 584-692): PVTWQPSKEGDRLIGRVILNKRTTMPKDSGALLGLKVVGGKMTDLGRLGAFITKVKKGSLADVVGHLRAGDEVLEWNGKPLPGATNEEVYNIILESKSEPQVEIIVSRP

Binder	pKd
CLDTSRETDL [KCNA5, P22460]	below the threshold

Molecular target: T5, MPDZ_11, O75970
Assay: holdup assay
Design: key: below the threshold = too weak to quantify, mostly under pKd 3.1 to 4
Settings: plain residues with an end cap or a label only (N-terminal biotin on a linker: ttds)

Binder	pKd
CLDTSRETDL [KCNA5, P22460]	below the threshold
DEDQHTQITKV [PTEN, P60484]	below the threshold

Molecular target: MAGI1_5, Q96QZ7
Assay: holdup assay
Design: key: below the threshold = too weak to quantify, mostly under pKd 3.1 to 4
Settings: plain residues with an end cap or a label only (N-terminal biotin on a linker: ttds)

Sequence of MAGI1_5, Q96QZ7 (Q96QZ7 986-1098): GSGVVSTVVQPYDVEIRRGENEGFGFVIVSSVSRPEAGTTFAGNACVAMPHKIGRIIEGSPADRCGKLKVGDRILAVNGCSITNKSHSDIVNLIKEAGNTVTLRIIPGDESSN

Binder	pKd
CLDTSRETDL [KCNA5, P22460]	below the threshold
DEDQHTQITKV [PTEN, P60484]	4.53

Molecular target: T6, DVL1, O14640
Assay: holdup assay
Design: key: below the threshold = too weak to quantify, mostly under pKd 3.1 to 4
Settings: plain residues with an end cap or a label only (N-terminal biotin on a linker: ttds)

Binder	pKd
CLDTSRETDL [KCNA5, P22460]	below the threshold
DEDQHTQITKV [PTEN, P60484]	below the threshold

Molecular target: MAGI3_5, Q5TCQ9
Assay: holdup assay
Design: key: below the threshold = too weak to quantify, mostly under pKd 3.1 to 4
Settings: plain residues with an end cap or a label only (N-terminal biotin on a linker: ttds)

Sequence of MAGI3_5, Q5TCQ9 (Q5TCQ9 847-941): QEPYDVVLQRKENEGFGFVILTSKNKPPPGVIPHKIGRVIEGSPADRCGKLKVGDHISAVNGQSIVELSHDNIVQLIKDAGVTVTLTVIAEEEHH

Binder	pKd
CLDTSRETDL [KCNA5, P22460]	below the threshold
DEDQHTQITKV [PTEN, P60484]	below the threshold

Molecular target: T7, PDZD2_5, O15018
Assay: holdup assay
Design: key: below the threshold = too weak to quantify, mostly under pKd 3.1 to 4
Settings: plain residues with an end cap or a label only (N-terminal biotin on a linker: ttds)

Binder	pKd
CLDTSRETDL [KCNA5, P22460]	below the threshold
DEDQHTQITKV [PTEN, P60484]	below the threshold

Molecular target: T8, NHERF3_2, Q5T2W1
Assay: holdup assay
Design: key: below the threshold = too weak to quantify, mostly under pKd 3.1 to 4
Settings: plain residues with an end cap or a label only (N-terminal biotin on a linker: ttds)

Binder	pKd
CLDTSRETDL [KCNA5, P22460]	below the threshold
DEDQHTQITKV [PTEN, P60484]	below the threshold

Molecular target: PARD3B_3, Q8TEW8
Assay: holdup assay
Design: key: below the threshold = too weak to quantify, mostly under pKd 3.1 to 4
Settings: plain residues with an end cap or a label only (N-terminal biotin on a linker: ttds)

Sequence of PARD3B_3, Q8TEW8 (Q8TEW8 490-594): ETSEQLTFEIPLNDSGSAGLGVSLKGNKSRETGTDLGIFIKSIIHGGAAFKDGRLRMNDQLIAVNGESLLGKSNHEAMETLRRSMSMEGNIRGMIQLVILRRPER

Binder	pKd
CLDTSRETDL [KCNA5, P22460]	below the threshold
DEDQHTQITKV [PTEN, P60484]	below the threshold

Molecular target: DLG5_2, Q8TDM6
Assay: holdup assay
Design: key: below the threshold = too weak to quantify, mostly under pKd 3.1 to 4
Settings: plain residues with an end cap or a label only (N-terminal biotin on a linker: ttds)

Sequence of DLG5_2, Q8TDM6 (Q8TDM6 714-800): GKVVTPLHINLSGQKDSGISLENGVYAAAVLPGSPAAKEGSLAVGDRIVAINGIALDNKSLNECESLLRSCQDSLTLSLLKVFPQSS

Binder	pKd
CLDTSRETDL [KCNA5, P22460]	below the threshold
DEDQHTQITKV [PTEN, P60484]	below the threshold

Molecular target: T9, PDZD7_1, Q9H5P4
Assay: holdup assay
Design: key: below the threshold = too weak to quantify, mostly under pKd 3.1 to 4
Settings: plain residues with an end cap or a label only (N-terminal biotin on a linker: ttds)

Binder	pKd
CLDTSRETDL [KCNA5, P22460]	below the threshold
DEDQHTQITKV [PTEN, P60484]	below the threshold

Molecular target: MAGI3_4, Q5TCQ9
Assay: holdup assay
Design: key: below the threshold = too weak to quantify, mostly under pKd 3.1 to 4
Settings: plain residues with an end cap or a label only (N-terminal biotin on a linker: ttds)

Sequence of MAGI3_4, Q5TCQ9 (Q5TCQ9 716-815): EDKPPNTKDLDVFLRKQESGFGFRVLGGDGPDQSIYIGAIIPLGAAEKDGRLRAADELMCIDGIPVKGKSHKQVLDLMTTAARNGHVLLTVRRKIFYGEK

Binder	pKd
CLDTSRETDL [KCNA5, P22460]	below the threshold
DEDQHTQITKV [PTEN, P60484]	below the threshold

Molecular target: PARD3_1, Q8TEW0
Assay: holdup assay
Design: key: below the threshold = too weak to quantify, mostly under pKd 3.1 to 4
Settings: plain residues with an end cap or a label only (N-terminal biotin on a linker: ttds)

Sequence of PARD3_1, Q8TEW0 (Q8TEW0 264-372): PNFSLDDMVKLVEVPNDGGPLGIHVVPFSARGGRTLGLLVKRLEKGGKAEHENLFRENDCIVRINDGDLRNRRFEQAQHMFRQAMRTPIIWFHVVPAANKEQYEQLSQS

Binder	pKd
CLDTSRETDL [KCNA5, P22460]	below the threshold
DEDQHTQITKV [PTEN, P60484]	below the threshold

Molecular target: T10, SHROOM4, Q9ULL8
Assay: holdup assay
Design: key: below the threshold = too weak to quantify, mostly under pKd 3.1 to 4
Settings: plain residues with an end cap or a label only (N-terminal biotin on a linker: ttds)

Binder	pKd
CLDTSRETDL [KCNA5, P22460]	below the threshold
DEDQHTQITKV [PTEN, P60484]	below the threshold

Molecular target: MAGI3_6, Q5TCQ9
Assay: holdup assay
Design: key: below the threshold = too weak to quantify, mostly under pKd 3.1 to 4
Settings: plain residues with an end cap or a label only (N-terminal biotin on a linker: ttds)

Sequence of MAGI3_6, Q5TCQ9 (Q5TCQ9 1014-1103): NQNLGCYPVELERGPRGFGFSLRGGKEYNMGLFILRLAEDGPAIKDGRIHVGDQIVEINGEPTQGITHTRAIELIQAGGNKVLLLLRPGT

Binder	pKd
CLDTSRETDL [KCNA5, P22460]	4.34
DEDQHTQITKV [PTEN, P60484]	below the threshold

Molecular target: TJP1_1, Q07157
Assay: holdup assay
Design: key: below the threshold = too weak to quantify, mostly under pKd 3.1 to 4
Settings: plain residues with an end cap or a label only (N-terminal biotin on a linker: ttds)

Sequence of TJP1_1, Q07157 (Q07157 18-120): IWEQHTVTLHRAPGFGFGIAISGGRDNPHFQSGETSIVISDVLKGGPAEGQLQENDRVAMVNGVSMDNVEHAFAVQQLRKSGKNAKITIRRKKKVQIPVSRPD

Binder	pKd
CLDTSRETDL [KCNA5, P22460]	below the threshold
DEDQHTQITKV [PTEN, P60484]	3.58

Molecular target: T11, USH1C_2, Q9Y6N9
Assay: holdup assay
Design: key: below the threshold = too weak to quantify, mostly under pKd 3.1 to 4
Settings: plain residues with an end cap or a label only (N-terminal biotin on a linker: ttds)

Binder	pKd
CLDTSRETDL [KCNA5, P22460]	below the threshold

Molecular target: T12, MPDZ_13, O75970
Assay: holdup assay
Design: key: below the threshold = too weak to quantify, mostly under pKd 3.1 to 4
Settings: plain residues with an end cap or a label only (N-terminal biotin on a linker: ttds)

Binder	pKd
CLDTSRETDL [KCNA5, P22460]	below the threshold

Molecular target: RGS3, P49796-9
Assay: holdup assay
Design: key: below the threshold = too weak to quantify, mostly under pKd 3.1 to 4
Settings: plain residues with an end cap or a label only (N-terminal biotin on a linker: ttds)

Sequence of RGS3, P49796-9 (P49796 other isoform, or with tags, fused parts or gaps): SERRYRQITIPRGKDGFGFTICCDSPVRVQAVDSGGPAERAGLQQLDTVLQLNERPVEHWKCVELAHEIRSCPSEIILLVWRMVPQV

Binder	pKd
CLDTSRETDL [KCNA5, P22460]	below the threshold

Molecular target: CNKSR3, Q6P9H4
Assay: holdup assay
Design: key: below the threshold = too weak to quantify, mostly under pKd 3.1 to 4
Settings: plain residues with an end cap or a label only (N-terminal biotin on a linker: ttds)

Sequence of CNKSR3, Q6P9H4 (Q6P9H4 203-303): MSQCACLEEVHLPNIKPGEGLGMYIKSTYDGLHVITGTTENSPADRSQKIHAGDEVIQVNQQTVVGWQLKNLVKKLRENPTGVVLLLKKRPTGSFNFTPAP

Binder	pKd
CLDTSRETDL [KCNA5, P22460]	below the threshold
DEDQHTQITKV [PTEN, P60484]	below the threshold
